Data from patent US20200299408A1 (Genentech, published 2020).
Values joined by “and” are separate entries in the source; they are usually repeats but may differ in a detail not shown here. Equal values may be shown once.

Legend:
[1] = molecular target: T1, single chain human CD3ε-26mer-CD3γ (CD3εγ) (human); test: Biacore single cycle kinetics: Fab captured by anti-human Fab, human CD3εγ injected (3-250 nM)
T1 construct: also called human CD3εγ
T1 chain: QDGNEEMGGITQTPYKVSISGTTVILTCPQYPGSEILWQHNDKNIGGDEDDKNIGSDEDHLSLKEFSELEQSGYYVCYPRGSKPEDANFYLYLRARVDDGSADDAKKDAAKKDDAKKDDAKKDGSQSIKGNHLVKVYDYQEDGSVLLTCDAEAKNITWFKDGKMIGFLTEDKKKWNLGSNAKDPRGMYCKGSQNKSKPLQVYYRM
Description: In addition, position 95 in HVR-H3 was also mutated to serine, threonine, or glutamate. Variants with these single point mutations were expressed as Fabs in HEK293 cells and initially screened with a single cycle kinetics method on a Biacore T100. Selected variants were also scaled up and purified for a conventional multi-cycle kinetics method. For single cycle kinetics, Biacore Series S CM5 sensor chips were immobilized with anti-human Fab antibodies (Human Fab capture kit, GE Healthcare). […] For conventional multi-cycle kinetics, human CD3εγ, cyno CD3εγ, or a 27-mer peptide were immobilized on Biacore Series S CM5 sensor chip using the amine coupling kit from Biacore. Serial 3-fold dilutions of each Fab variant were injected at a flow rate of 30 μl/min. Each sample was analyzed with a protocol of 3-minute association and 3-minute dissociation. In both methods, the Biacore chips were regenerated using 10 mM Glycine (pH 1.7). Binding response was corrected by blank subtraction and a 1:1Languir model of simultaneous fitting of kₒₙ and koff was used for kinetics analysis.

[2] = molecular target: T1, single chain human CD3ε-26mer-CD3γ …; test: Biacore, human CD3εγ on chip, TDB in flow through
Method: (§1) Binding affinities for the each of the CD3/CD20 TDBs were tested by Biacore or FACS analysis, as described above for the anti-CD3 antibodies. Briefly, for Biacore binding assays, human CD3εγ was immobilized on Biacore Series S CM5 sensor chip using the amine coupling kit from Biacore and CD3/CD20 TDBs or Fab variants thereof were in the flow through. For FACS binding assays, either Bjab cells (for B cell antigens) or Jurkat cells (for CD3 antigen) were incubated with various concentrations of TDB antibodies at 4° C. for 30 minutes, then cells were washed and incubated with 2nd antibody (anti-huIgG-PE; BD Bioscience) for another 15 minutes, before cells were washed again and ready for FACS analysis.

[3] = molecular target: T2, human CD3 on T cells (human, UniProt P07766 22-207); test: FACS on Jurkat cells (CD3); EC50 table for the curves of FIGS. 21A-21B; source CHO (N297G)
T2 construct: whole, on cells; On cells CD3ε stands in the CD3/TCR complex; also called CD3 antigen; CD3ε
Method: as §1

Row | Binder | binding result [1] | Kd [2] | koff [2] [s⁻¹] | kon [2] [M⁻¹ s⁻¹] | EC50 [3]
1 | hu38E4.v1 H3 mutant F100bA (Fab, V domains shown, copies: 1 + 1) VH: EVQLVQSGAEVKKPGASVKVSCKASGFTFTSYYIHWVRQAPGQGLEWIGWIYPENDNTKYNEKFKDRVTITADTSTSTAYLELSSLRSEDTAVYYCARDGYSRYYADYWGQGTLVTVSS VL: DIVMTQSPDSLAVSLGERATINCKSSQSLLNSRTRKNYLAWYQQKPGQSPKLLIYWTSTRKSGVPDRFSGSGSGTDFTLTISSLQAEDVAVYYCKQSFILRTFGQGTKVEIK | no binding (tested: 250 nM CD3εγ (p-1386; not on the sheet)) | – | – | – | –
2 | 38E4v8 CHO (bispecific antibody, also called CD3/CD20 TDB 2H7v16/38E4v8) anti-CD20 arm heavy chain: EVQLVESGGGLVQPGGSLRLSCAASGYTFTSYNMHWVRQAPGKGLEWVGAIYPGNGDTSYNQKFKGRFTISVDKSKNTLYLQMNSLRAEDTAVYYCARVVYYSNSYWYFDVWGQGTLVTVSS anti-CD20 arm light chain: DIQMTQSPSSLSASVGDRVTITCRASSSVSYMHWYQQKPGKAPKPLIYAPSNLASGVPSRFSGSGSGTDFTLTISSLQPEDFATYYCQQWSFNPPTFGQGTKVEIK anti-CD3 arm heavy chain: EVQLVQSGAEVKKPGASVKVSCKASGFTFTSYYIHWVRQAPGQGLEWIGWIYPENDNTKYNEKFKDRVTITADTSTSTAYLELSSLRSEDTAVYYCARSGYSRYYFDYWGQGTLVTVSS anti-CD3 arm light chain: DIVMTQSPDSLAVSLGERATINCKSSQSLLNSRTRKNYLAWYQQKPGQSPKLLIYWTSTRKSGVPDRFSGSGSGTDFTLTISSLQAEDVAVYYCKQSFILRTFGQGTKVEIK | – | 3930 nM | 0.0443 | 11300 | 7.23 µg/mL and ~47 nM
3 | hu38E4.v1 H3 mutant R99A (Fab, V domains shown, copies: 1 + 1) VH: EVQLVQSGAEVKKPGASVKVSCKASGFTFTSYYIHWVRQAPGQGLEWIGWIYPENDNTKYNEKFKDRVTITADTSTSTAYLELSSLRSEDTAVYYCARDGYSAYYFDYWGQGTLVTVSS VL: DIVMTQSPDSLAVSLGERATINCKSSQSLLNSRTRKNYLAWYQQKPGQSPKLLIYWTSTRKSGVPDRFSGSGSGTDFTLTISSLQAEDVAVYYCKQSFILRTFGQGTKVEIK | no binding (tested: 250 nM CD3εγ (p-1386; not on the sheet)) | – | – | – | –
4 | 38E4v5 CHO (bispecific antibody, also called CD3/CD20 TDB 2H7v16/38E4v5) anti-CD20 arm heavy chain: EVQLVESGGGLVQPGGSLRLSCAASGYTFTSYNMHWVRQAPGKGLEWVGAIYPGNGDTSYNQKFKGRFTISVDKSKNTLYLQMNSLRAEDTAVYYCARVVYYSNSYWYFDVWGQGTLVTVSS anti-CD20 arm light chain: DIQMTQSPSSLSASVGDRVTITCRASSSVSYMHWYQQKPGKAPKPLIYAPSNLASGVPSRFSGSGSGTDFTLTISSLQPEDFATYYCQQWSFNPPTFGQGTKVEIK anti-CD3 arm heavy chain: EVQLVQSGAEVKKPGASVKVSCKASGFTFTSYYIHWVRQAPGQGLEWIGWIYPENDNTKYNEKFKDRVTITADTSTSTAYLELSSLRSEDTAVYYCARDGYSRYYFDYWGQGTLVTVSS anti-CD3 arm light chain: DIVMTQSPDSLAVSLGERATINCKSSQSLLNSRTRKNYLAWYQQKPGQSPKLLIYWTSTRKSGVPDRFSGSGSGTDFTLTISSLQAEDVAVYYCKQSAILRTFGQGTKVEIK | – | 16 nM | 0.0515 | 3.22e+06 | 4.11 µg/mL and ~27 nM
5 | 38E4v3 CHO (bispecific antibody, also called CD3/CD20 TDB 2H7v16/38E4v3) anti-CD20 arm heavy chain: EVQLVESGGGLVQPGGSLRLSCAASGYTFTSYNMHWVRQAPGKGLEWVGAIYPGNGDTSYNQKFKGRFTISVDKSKNTLYLQMNSLRAEDTAVYYCARVVYYSNSYWYFDVWGQGTLVTVSS anti-CD20 arm light chain: DIQMTQSPSSLSASVGDRVTITCRASSSVSYMHWYQQKPGKAPKPLIYAPSNLASGVPSRFSGSGSGTDFTLTISSLQPEDFATYYCQQWSFNPPTFGQGTKVEIK anti-CD3 arm heavy chain: EVQLVQSGAEVKKPGASVKVSCKASGFTFTSYYIHWVRQAPGQGLEWIGWIYPENDNTKYNEKFKDRVTITADTSTSTAYLELSSLRSEDTAVYYCARDGYSRYYFDYWGQGTLVTVSS anti-CD3 arm light chain: DIVMTQSPDSLAVSLGERATINCKSSQSLLNSRTRKNYLAWYQQKPGQSPKLLIYWTSTRKSGVPDRFSGSGSGTDFTLTISSLQAEDVAVYYCKQSFALRTFGQGTKVEIK | – | 3.21 nM and 3.2 nM | 0.016 | 4.98e+06 | 0.29 µg/mL and ~1.9 nM
6 | 38E4v4 CHO (bispecific antibody, also called CD3/CD20 TDB 2H7v16/38E4v4) anti-CD20 arm heavy chain: EVQLVESGGGLVQPGGSLRLSCAASGYTFTSYNMHWVRQAPGKGLEWVGAIYPGNGDTSYNQKFKGRFTISVDKSKNTLYLQMNSLRAEDTAVYYCARVVYYSNSYWYFDVWGQGTLVTVSS anti-CD20 arm light chain: DIQMTQSPSSLSASVGDRVTITCRASSSVSYMHWYQQKPGKAPKPLIYAPSNLASGVPSRFSGSGSGTDFTLTISSLQPEDFATYYCQQWSFNPPTFGQGTKVEIK anti-CD3 arm heavy chain: EVQLVQSGAEVKKPGASVKVSCKASGFTFTSYYIHWVRQAPGQGLEWIGWIYPENDNTKYNEKFKDRVTITADTSTSTAYLELSSLRSEDTAVYYCARDGYSRYYFDYWGQGTLVTVSS anti-CD3 arm light chain: DIVMTQSPDSLAVSLGERATINCKSSQSLLNSRTRKNYLAWYQQKPGQSPKLLIYWTSTRKSGVPDRFSGSGSGTDFTLTISSLQAEDVAVYYCKASFILRTFGQGTKVEIK | – | 137 nM and 136 nM | 0.0984 | 721000 | 3.51 µg/mL and ~23 nM
7 | 38E4v2 CHO (bispecific antibody, also called CD3/CD20 TDB 2H7v16/38E4v2) anti-CD20 arm heavy chain: EVQLVESGGGLVQPGGSLRLSCAASGYTFTSYNMHWVRQAPGKGLEWVGAIYPGNGDTSYNQKFKGRFTISVDKSKNTLYLQMNSLRAEDTAVYYCARVVYYSNSYWYFDVWGQGTLVTVSS anti-CD20 arm light chain: DIQMTQSPSSLSASVGDRVTITCRASSSVSYMHWYQQKPGKAPKPLIYAPSNLASGVPSRFSGSGSGTDFTLTISSLQPEDFATYYCQQWSFNPPTFGQGTKVEIK anti-CD3 arm heavy chain: EVQLVQSGAEVKKPGASVKVSCKASGFTFTSYYIHWVRQAPGQGLEWIGWIYPENDNTKYNEKFKDRVTITADTSTSTAYLELSSLRSEDTAVYYCARDAYSRYYFDYWGQGTLVTVSS anti-CD3 arm light chain: DIVMTQSPDSLAVSLGERATINCKSSQSLLNSRTRKNYLAWYQQKPGQSPKLLIYWTSTRKSGVPDRFSGSGSGTDFTLTISSLQAEDVAVYYCKQSFILRTFGQGTKVEIK | – | 2.43 nM and 2.4 nM | 0.00513 | 2.11e+06 | 0.52 µg/mL and ~3.4 nM
8 | 38E4v7 CHO (bispecific antibody, also called CD3/CD20 TDB 2H7v16/38E4v7) anti-CD20 arm heavy chain: EVQLVESGGGLVQPGGSLRLSCAASGYTFTSYNMHWVRQAPGKGLEWVGAIYPGNGDTSYNQKFKGRFTISVDKSKNTLYLQMNSLRAEDTAVYYCARVVYYSNSYWYFDVWGQGTLVTVSS anti-CD20 arm light chain: DIQMTQSPSSLSASVGDRVTITCRASSSVSYMHWYQQKPGKAPKPLIYAPSNLASGVPSRFSGSGSGTDFTLTISSLQPEDFATYYCQQWSFNPPTFGQGTKVEIK anti-CD3 arm heavy chain: EVQLVQSGAEVKKPGASVKVSCKASGFTFTSYYIHWVRQAPGQGLEWIGWIYPENDNTKYNEKFKDRVTITADTSTSTAYLELSSLRSEDTAVYYCARDGYSRYAFDYWGQGTLVTVSS anti-CD3 arm light chain: DIVMTQSPDSLAVSLGERATINCKSSQSLLNSRTRKNYLAWYQQKPGQSPKLLIYWTSTRKSGVPDRFSGSGSGTDFTLTISSLQAEDVAVYYCKQSFILRTFGQGTKVEIK | – | 254 nM | 0.29 | 1.14e+06 | 22.6 µg/mL and ~147 nM
9 | 38E4v6 CHO (bispecific antibody, also called CD3/CD20 TDB 2H7v16/38E4v6) anti-CD20 arm heavy chain: EVQLVESGGGLVQPGGSLRLSCAASGYTFTSYNMHWVRQAPGKGLEWVGAIYPGNGDTSYNQKFKGRFTISVDKSKNTLYLQMNSLRAEDTAVYYCARVVYYSNSYWYFDVWGQGTLVTVSS anti-CD20 arm light chain: DIQMTQSPSSLSASVGDRVTITCRASSSVSYMHWYQQKPGKAPKPLIYAPSNLASGVPSRFSGSGSGTDFTLTISSLQPEDFATYYCQQWSFNPPTFGQGTKVEIK anti-CD3 arm heavy chain: EVQLVQSGAEVKKPGASVKVSCKASGFTFTSYYIHWVRQAPGQGLEWIGWIYPENDNTKYNEKFKDRVTITADTSTSTAYLELSSLRSEDTAVYYCARTGYSRYYFDYWGQGTLVTVSS anti-CD3 arm light chain: DIVMTQSPDSLAVSLGERATINCKSSQSLLNSRTRKNYLAWYQQKPGQSPKLLIYWTSTRKSGVPDRFSGSGSGTDFTLTISSLQAEDVAVYYCKQSFILRTFGQGTKVEIK | – | 37600 nM | 0.878 | 23400 | 5.56 µg/mL and ~36 nM
10 | hu38E4.v1 H3 mutant Y97A (Fab, V domains shown, copies: 1 + 1) VH: EVQLVQSGAEVKKPGASVKVSCKASGFTFTSYYIHWVRQAPGQGLEWIGWIYPENDNTKYNEKFKDRVTITADTSTSTAYLELSSLRSEDTAVYYCARDGASRYYFDYWGQGTLVTVSS VL: DIVMTQSPDSLAVSLGERATINCKSSQSLLNSRTRKNYLAWYQQKPGQSPKLLIYWTSTRKSGVPDRFSGSGSGTDFTLTISSLQAEDVAVYYCKQSFILRTFGQGTKVEIK | no binding (tested: 250 nM CD3εγ (p-1386; not on the sheet)) | – | – | – | –
